The values that follow come from patent publication US20050214287A1 (published 2005).

The target in one test is CXCR4 (human) (UniProt P61073). The experiment in a line: competition of 125I SDF-1α on CEM-NKr cells.
For a further test, the target named is T1, CXCR4 (human, UniProt P61073 1-352).
T1 construct: whole, on cells; also called the SDF-1 receptor expressed on CEM-NKr; the hallmark SDF-1 receptor
The experiment in a line: displacement of 125I SDF-1α on CEM-NKr cells, DisplaceMax panel. On the technique in general: Loss of bound radioactivity is the signal in a displacement assay; it reports binding, not function.

By IC50 is commonly meant the midpoint of a concentration-inhibition curve. Lower therefore signals inhibition by little substance.

Chain of CXCR4 (human) (P61073 whole entry): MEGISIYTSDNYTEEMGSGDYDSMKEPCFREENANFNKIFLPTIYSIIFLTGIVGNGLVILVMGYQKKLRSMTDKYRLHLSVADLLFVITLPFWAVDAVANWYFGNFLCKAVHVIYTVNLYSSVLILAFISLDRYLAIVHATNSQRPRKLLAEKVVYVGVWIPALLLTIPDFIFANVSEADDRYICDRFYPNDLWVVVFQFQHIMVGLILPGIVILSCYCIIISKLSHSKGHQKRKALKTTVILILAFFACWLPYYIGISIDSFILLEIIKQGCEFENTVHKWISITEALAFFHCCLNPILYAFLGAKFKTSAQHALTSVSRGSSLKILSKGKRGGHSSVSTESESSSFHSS
T1 sequence (P61073 whole entry): as above

“SDF-1β (human) (from UniProt P48061 22-93) (ligand)”: the IC50 with CXCR4 (human) stood at 1.5 nM.

B1: I-TAC (mouse) (ligand, UniProt Q9JHH5 22-100, looked up)
chain: FLMFKQGRCLCIGPGMKAVKMAEIEKASVIYPSNGCDKVEVIVTMKAHKRQRCLDPRSKQARLIMQAIEKKNFLRRQNM
notes: also called CXCL11
Consider B1, for which, in the test with CXCR4, the binding result is “no binding”.
